Laboratory results as given in patent publication US20160024219A1 (Sanofi, published 2016).
Values belong to the binder of their own block, whether it stands above or below them.

How the values were obtained:
CD52 peptide #741 [1] = biological target: T1, CD52 peptide #741; assay: BIACORE (SPR), CD52 peptide #741 chip; week 0, reference of the normalization
T1 construct: also called CD52 peptide #741 chip
Experimental: (§1) The proteins (85 μg) were diluted in PBS, pH 7.2, to 0.4 mg/ml, and incubated at 45° C. for 4 weeks. Their binding affinity to CD52 peptide was measured on BIACORE™.

CD52 peptide #741 [2] = biological target: T1, CD52 peptide #741; assay: BIACORE (SPR), CD52 peptide #741 chip, preliminary constant; antibody at week 0 (before incubation)
Experimental: as §1

CD52 peptide #741 [3] = biological target: T1, CD52 peptide #741; assay: BIACORE (SPR), CD52 peptide #741 chip, preliminary constant; antibody after 4 weeks at 45C, pH 7.2 in PBS
Experimental: as §1

CD52 peptide #741 [4] = biological target: T1, CD52 peptide #741; assay: BIACORE (SPR), CD52 peptide #741 chip; antibody after 2 weeks at 45C, pH 7.2 in PBS
Experimental: as §1

CD52 peptide #741 [5] = biological target: T1, CD52 peptide #741; assay: BIACORE (SPR), CD52 peptide #741 chip, preliminary constant; antibody after 2 weeks at 45C, pH 7.2 in PBS
Experimental: as §1

CD52 peptide #741 [6] = biological target: T1, CD52 peptide #741; assay: BIACORE (SPR), CD52 peptide #741 chip; antibody after 4 weeks at 45C, pH 7.2 in PBS
Experimental: as §1

[7] = biological target: T2, CD52 peptide mimotope (CGQNDTSQTSSPSAD); assay: BIACORE, CD52 peptide on CM5 chip; antibody from CHO; CHO-produced Ab1; higher concentrations, up to 1900 nM
T2 construct: Immobilized at a low level on a CM5 chip via thiol chemistry using the N-terminal Cys; also called CD52 peptide chip
T2 peptide: CGQNDTSQTSSPSAD
Experimental: (§2) Several concentrations of anti-CD52 antibody made in HBS-EP running buffer (1 to 20 nM) were injected over the surface to monitor the binding. Kinetic analysis was performed using Scrubber2 software.

[8] = biological target: T2, CD52 peptide mimotope (CGQNDTSQTSSPSAD); assay: BIACORE, CD52 peptide on CM5 chip
Experimental: as §2

[9] = biological target: T2, CD52 peptide mimotope (CGQNDTSQTSSPSAD); assay: BIACORE (SPR), CD52 peptide, antibody purified from CHO cells; inset table, column kd; the sheet prints no unit, unit from Table 5 of the text
Experimental: as §2

[10] = biological target: T2, CD52 peptide mimotope (CGQNDTSQTSSPSAD); assay: BIACORE (SPR), CD52 peptide, purified antibody; concentrations used for fit 240nM - 1.9nM; sheet's note to the asterisk: for more accurate KD, a higher concentration range should be used
[11] = biological target: T2, CD52 peptide mimotope (CGQNDTSQTSSPSAD); assay: BIACORE (SPR), CD52 peptide, antibody purified from CHO cells; inset table
Experimental: as §2

[12] = biological target: T2, CD52 peptide mimotope (CGQNDTSQTSSPSAD); assay: BIACORE (SPR), CD52 peptide, purified antibody; concentrations used for fit 240nM - 1.9nM
[13] = biological target: T2, CD52 peptide mimotope (CGQNDTSQTSSPSAD); assay: BIACORE (SPR), CD52 peptide, antibody purified from CHO cells; inset table, column ka; the sheet prints no unit, unit from Table 5 of the text
Experimental: as §2

[14] = biological target: T2, CD52 peptide mimotope (CGQNDTSQTSSPSAD); assay: BIACORE, CD52 peptide on CM5 chip; antibody from HEK293; HEK293-produced Ab1; higher concentrations, up to 1900 nM
Experimental: as §2

[15] = biological target: T2, CD52 peptide mimotope (CGQNDTSQTSSPSAD); assay: BIACORE (SPR), CD52 peptide, purified antibody; concentrations used for fit 240nM - 0.4nM
[16] = biological target: T2, CD52 peptide mimotope (CGQNDTSQTSSPSAD); assay: BIACORE (SPR), CD52 peptide, purified antibody; concentrations used for fit 7.5nM - 0.2nM
CD52 peptide #741 [17] = biological target: T1, CD52 peptide #741; assay: BIACORE (SPR), CD52 peptide #741 chip, apparent KD; antibody after 2 weeks at 37C, 3 component buffer pH 7.5
Text: (§3) Aliquots were taken at Week 2 and Week 4 (T2 and T4) to assess their affinity to CD52 peptide by BIACORE™.

CD52 peptide #741 [18] = biological target: T1, CD52 peptide #741; assay: BIACORE (SPR), CD52 peptide #741 chip, apparent KD; antibody after 4 weeks at 37C, 3 component buffer pH 7.5
Text: as §3

CD52 peptide #741 [19] = biological target: T1, CD52 peptide #741; assay: BIACORE (SPR), CD52 peptide #741 chip, apparent KD; table 'after 37C incubation', T0, 3 component buffer pH 7.5
Text: as §3

[20] = biological target: T2, CD52 peptide mimotope (CGQNDTSQTSSPSAD); assay: BIACORE (SPR), CD52 peptide, purified antibody; concentrations used for fit 240nM - 0.4nM; sheet's note to the asterisk: for more accurate KD, a higher concentration range should be used

B2: Ab1 (antibody, human IgG1, kappa, V domains shown)
VH: EVQLVESGGGLVQPGGSLRLSCAASGFPFSNYWMNWVRQAPGKGLEWVGQIRLKSNNYATHYAESVKGRFTISRDDSKNSLYLQMNSLKTEDTAVYYCTPIDYWGQGTTVTVSS
VL: DIVMTQTPLSLSVTPGQPASISCKSSQSLLYSDGKTYLNWVLQKPGQSPQRLIYLVSKLDSGVPDRFSGSGSGTDFTLKISRVEAEDVGVYYCVQGSHFHTFGQGTKLEIKR
notes: made in HEK293 and in CHO cells
Kd [7]: 1250 nM
koff [7]: 0.383 s⁻¹
kon [7]: 300000 M⁻¹ s⁻¹
fold reduction in affinity compared to Ab26 [8]: > 400 fold
koff [9]: 0.383 s⁻¹
Kd [10]: 366 nM
Kd [11]: 1250 nM
koff [12]: 0.421 s⁻¹
kon [12]: 1.1e+06 M⁻¹ s⁻¹
kon [13]: 306000 M⁻¹ s⁻¹
Kd [14]: 1480 nM
koff [14]: 0.58 s⁻¹
kon [14]: 400000 M⁻¹ s⁻¹

B3: Ab3 (antibody, human IgG1, kappa, V domains shown)
VH: EVQLVESGGGLVQPGGSLRLSCAASGFPFSNYWMNWVRQAPGKGLEWVGQIRLKSNNYATHYAESVKGRFTISRDDSKNSLYLQMNSLKTEDTAVYYCTPIDYWGQGTTVTVSS
VL: DIVMTQTPLSLSVTPGQPASISCKSSQSLLYSKGKTYLNWVLQKPGQSPQRLIYLVSKLDSGVPDRFSGSGSGTDFTLKISRVEAEDVGVYYCVQGSHFHTFGQGTKLEIKR
notes: made in HEK293 cells
Kd [15]: 65.8 nM
koff [15]: 0.198 s⁻¹
kon [15]: 3.1e+06 M⁻¹ s⁻¹

B5: Ab10 (antibody, human IgG1, kappa, V domains shown)
VH: EVQLVESGGGLVQPGGSLRLSCAASGFPFSNYWMNWVRQAPGKGLEWVGQIRLKSNNYATHYAESVKGRFTISRDDSKNSLYLQMNSLKTEDTAVYYCTPIDYWGQGTTVTVSS
VL: DIVMTQTPLSLSVTPGQPASISCKSSQSLLYSNAKTYLNWVLQKPGQSPQRLIYLVSKLDSGVPDRFSGSGSGTDFTLKISRVEAEDVGVYYCVQGSHFHTFGQGTKLEIKR
Kd (CD52 peptide #741 [2]): 5.63 nM
Kd (CD52 peptide #741 [3]): 144 nM
Kd [16]: 5 nM

B6: Ab12 (antibody, human IgG1, kappa, V domains shown)
VH: EVQLVESGGGLVQPGGSLRLSCAASGFPFSNYWMNWVRQAPGKGLEWVGQIRLKSNNYATHYAESVKGRFTISRDDSKNSLYLQMNSLKTEDTAVYYCTPIDYWGQGTTVTVSS
VL: DIVMTQTPLSLSVTPGQPASISCKSSQSLLYSNEKTYLNWVLQKPGQSPQRLIYLVSKLDSGVPDRFSGSGSGTDFTLKISRVEAEDVGVYYCVQGSHFHTFGQGTKLEIKR
Kd [15]: 39.8 nM
koff [15]: 0.045 s⁻¹
kon [15]: 1.1e+06 M⁻¹ s⁻¹

B7: Ab24 (antibody, human IgG1, kappa, V domains shown)
VH: EVQLVESGGGLVQPGGSLRLSCAASGFPFSNYWMNWVRQAPGKGLEWVGQIRLKSNNYATHYAESVKGRFTISRDDSKNSLYLQMNSLKTEDTAVYYCTPIDYWGQGTTVTVSS
VL: DIVMTQTPLSLSVTPGQPASISCKSSQSLLYSNVKTYLNWVLQKPGQSPQRLIYLVSKLDSGVPDRFSGSGSGTDFTLKISRVEAEDVGVYYCVQGSHFHTFGQGTKLEIKR
Kd (CD52 peptide #741 [17]): 10.5 nM
%T0 (affinity relative to T0) (CD52 peptide #741 [1]): 100%
Kd (CD52 peptide #741 [2]): 5.15 nM
Kd (CD52 peptide #741 [3]): 17.2 nM
%T0 (affinity relative to T0) (CD52 peptide #741 [4]): 30.5%
Kd (CD52 peptide #741 [5]): 16.9 nM
%T0 (affinity relative to T0) (CD52 peptide #741 [6]): 29.8%
Kd [16]: 5.6 nM
koff [16]: 0.019 s⁻¹
kon [16]: 3.4e+06 M⁻¹ s⁻¹
Kd (CD52 peptide #741 [18]): 11.3 nM
Kd (CD52 peptide #741 [19]): 7 nM

B9: Ab14 (antibody, human IgG1, kappa, V domains shown)
VH: EVQLVESGGGLVQPGGSLRLSCAASGFPFSNYWMNWVRQAPGKGLEWVGQIRLKSNNYATHYAESVKGRFTISRDDSKNSLYLQMNSLKTEDTAVYYCTPIDYWGQGTTVTVSS
VL: DIVMTQTPLSLSVTPGQPASISCKSSQSLLYSNHKTYLNWVLQKPGQSPQRLIYLVSKLDSGVPDRFSGSGSGTDFTLKISRVEAEDVGVYYCVQGSHFHTFGQGTKLEIKR
Kd (CD52 peptide #741 [2]): 3.5 nM
Kd (CD52 peptide #741 [3]): 33.3 nM
Kd (CD52 peptide #741 [5]): 8.97 nM

B10: Ab21 (antibody, human IgG1, kappa, V domains shown)
VH: EVQLVESGGGLVQPGGSLRLSCAASGFPFSNYWMNWVRQAPGKGLEWVGQIRLKSNNYATHYAESVKGRFTISRDDSKNSLYLQMNSLKTEDTAVYYCTPIDYWGQGTTVTVSS
VL: DIVMTQTPLSLSVTPGQPASISCKSSQSLLYSNRKTYLNWVLQKPGQSPQRLIYLVSKLDSGVPDRFSGSGSGTDFTLKISRVEAEDVGVYYCVQGSHFHTFGQGTKLEIKR
Kd (CD52 peptide #741 [2]): 2.05 nM
Kd (CD52 peptide #741 [3]): 4.15 nM

B12: Ab16 (antibody, human IgG1, kappa, V domains shown)
VH: EVQLVESGGGLVQPGGSLRLSCAASGFPFSNYWMNWVRQAPGKGLEWVGQIRLKSNNYATHYAESVKGRFTISRDDSKNSLYLQMNSLKTEDTAVYYCTPIDYWGQGTTVTVSS
VL: DIVMTQTPLSLSVTPGQPASISCKSSQSLLYSNKKTYLNWVLQKPGQSPQRLIYLVSKLDSGVPDRFSGSGSGTDFTLKISRVEAEDVGVYYCVQGSHFHTFGQGTKLEIKR
Kd (CD52 peptide #741 [2]): 2.77 nM
Kd (CD52 peptide #741 [5]): 7.17 nM

B13: Ab22 (antibody, human IgG1, kappa, V domains shown)
VH: EVQLVESGGGLVQPGGSLRLSCAASGFPFSNYWMNWVRQAPGKGLEWVGQIRLKSNNYATHYAESVKGRFTISRDDSKNSLYLQMNSLKTEDTAVYYCTPIDYWGQGTTVTVSS
VL: DIVMTQTPLSLSVTPGQPASISCKSSQSLLYSNSKTYLNWVLQKPGQSPQRLIYLVSKLDSGVPDRFSGSGSGTDFTLKISRVEAEDVGVYYCVQGSHFHTFGQGTKLEIKR
Kd (CD52 peptide #741 [2]): 2.44 nM
Kd (CD52 peptide #741 [3]): 187 nM

Now from value to binder:

%T0 (affinity relative to T0) (CD52 peptide #741 [1]): 100%
Kd (CD52 peptide #741 [2]): 4.12 nM
Kd (CD52 peptide #741 [3]): 8.85 nM
%T0 (affinity relative to T0) (CD52 peptide #741 [4]): 24.9%
Kd (CD52 peptide #741 [5]): 16.5 nM
%T0 (affinity relative to T0) (CD52 peptide #741 [6]): 46.5%
B1: Ab11 (antibody, human IgG1, kappa, V domains shown)
VH: EVQLVESGGGLVQPGGSLRLSCAASGFPFSNYWMNWVRQAPGKGLEWVGQIRLKSNNYATHYAESVKGRFTISRDDSKNSLYLQMNSLKTEDTAVYYCTPIDYWGQGTTVTVSS
VL: DIVMTQTPLSLSVTPGQPASISCKSSQSLLYSNDKTYLNWVLQKPGQSPQRLIYLVSKLDSGVPDRFSGSGSGTDFTLKISRVEAEDVGVYYCVQGSHFHTFGQGTKLEIKR

Kd [10]: 222 nM
koff [12]: 0.284 s⁻¹
kon [12]: 1.3e+06 M⁻¹ s⁻¹
B4: Ab4 (antibody, human IgG1, kappa, V domains shown)
VH: EVQLVESGGGLVQPGGSLRLSCAASGFPFSNYWMNWVRQAPGKGLEWVGQIRLKSNNYATHYAESVKGRFTISRDDSKNSLYLQMNSLKTEDTAVYYCTPIDYWGQGTTVTVSS
VL: DIVMTQTPLSLSVTPGQPASISCKSSQSLLYSQGKTYLNWVLQKPGQSPQRLIYLVSKLDSGVPDRFSGSGSGTDFTLKISRVEAEDVGVYYCVQGSHFHTFGQGTKLEIKR
notes: made in HEK293 cells

Kd [20]: 111 nM
koff [15]: 0.073 s⁻¹
kon [15]: 700000 M⁻¹ s⁻¹
B8: Ab25 (antibody, human IgG1, kappa, V domains shown)
VH: EVQLVESGGGLVQPGGSLRLSCAASGFPFSNYWMNWVRQAPGKGLEWVGQIRLKSNNYATHYAESVKGRFTISRDDSKNSLYLQMNSLKTEDTAVYYCTPIDYWGQGTTVTVSS
VL: DIVMTQTPLSLSVTPGQPASISCKSSQSLLYSNYKTYLNWVLQKPGQSPQRLIYLVSKLDSGVPDRFSGSGSGTDFTLKISRVEAEDVGVYYCVQGSHFHTFGQGTKLEIKR

Kd (CD52 peptide #741 [2]): 3.49 nM
Kd (CD52 peptide #741 [5]): 6.8 nM
B11: Ab20 (antibody, human IgG1, kappa, V domains shown)
VH: EVQLVESGGGLVQPGGSLRLSCAASGFPFSNYWMNWVRQAPGKGLEWVGQIRLKSNNYATHYAESVKGRFTISRDDSKNSLYLQMNSLKTEDTAVYYCTPIDYWGQGTTVTVSS
VL: DIVMTQTPLSLSVTPGQPASISCKSSQSLLYSNQKTYLNWVLQKPGQSPQRLIYLVSKLDSGVPDRFSGSGSGTDFTLKISRVEAEDVGVYYCVQGSHFHTFGQGTKLEIKR
